Experimental data reported in patent publication US20220163515, “PUMILIO DOMAIN-BASED MODULAR PROTEIN ARCHITECTURE FOR RNA BINDING” (Massachusetts Institute of Technology, published 2022).

What was measured:
[1] = molecular target: T1, PumHD wild-type (Pumilio homology domain) (Homo sapiens, UniProt Q14671 Q14671:828-1176); test: FP; no detectable binding, fit did not converge; conditions: tags: 6xHis (pBadHisB vector); label: 5'-FAM
Experimental: (§1) Methods Enzymol 469:287-302; Heyduk T, Ma Y, Tang H, Ebright R H (1996) Fluorescence anisotropy: rapid, quantitative assay for protein-DNA and protein-protein interaction. Methods Enzymol 274:492-503; Dinman J (2013) Biophysical approaches to translational control of gene expression. 317].
(§2) The cognate and non-cognate RNA targets for the purified Pum variant proteins were synthesized with 5′-labeled FAM, 6-carboxyfluorescein (IDT). […] 50 nM cognate RNA was mixed with increasing concentration of the protein (measured by NanoDrop, Thermo Scientific) in the binding buffer (25 mM Tris-HCl pH 7.5, 0.5 mM EDTA, 50 mM KCl, 0.1 mg/mL BSA). The 100 μL samples were assayed, in duplicates, for fluorescence anisotropy using a Cary Eclipse fluorimeter (Varian) with Manual Polarizer Accessory (Varian). […] Fluorescence anisotropy was calculated as a unitless ratio defined as R═(I₌−I_{⊥})/(I₌+2I_{⊥}), where I is the emission intensity parallel (I₌) or perpendicular (I_{⊥}) to the direction of polarization of the excitation source. […] The Kd of each protein to its cognate and non-cognate RNA was subsequently measured, using the protein concentration corrected to the active protein fraction, with constant concentration of RNA. The Kd was calculated from a non-linear fit in IgorPro 6.22 of the anisotropy vs. protein concentration plot to the equation [Qu X, Chaires J B (2000) Analysis of drug-DNA binding data.

[2] = molecular target: T1, PumHD wild-type (Pumilio homology …); test: FP; 25 mM Tris-HCl pH 7.5, 0.5 mM EDTA, 50 mM KCl, 0.1 mg/mL BSA; active-fraction corrected; conditions: tags: 6xHis (pBadHisB vector); label: 5'-FAM
Experimental: as §1, §2

T1 sequence (Q14671 828-1176, one chain of several): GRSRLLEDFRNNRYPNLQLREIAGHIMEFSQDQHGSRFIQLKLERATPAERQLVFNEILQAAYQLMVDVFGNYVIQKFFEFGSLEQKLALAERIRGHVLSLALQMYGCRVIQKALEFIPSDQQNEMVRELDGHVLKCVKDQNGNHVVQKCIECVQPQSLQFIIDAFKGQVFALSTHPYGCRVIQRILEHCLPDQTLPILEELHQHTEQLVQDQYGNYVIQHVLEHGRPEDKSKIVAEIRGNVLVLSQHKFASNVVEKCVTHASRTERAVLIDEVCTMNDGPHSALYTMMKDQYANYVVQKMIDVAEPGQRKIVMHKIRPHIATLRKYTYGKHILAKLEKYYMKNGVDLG

ACAUAUAU (ssRNA) [wild-type noncognate]: no binding [1].

With CCAGAAUUGUAUAUAUUCG (ssRNA) [wild-type NRE cognate] the Kd [2] was 0.088 nM.
